From the DeepSol protein solubility set

assay: soluble on expression in E. coli; label from the status in PepcDB or PDB records

| Sequence | soluble on expression in E. coli |
| --- | --- |
| MGSDKIHHHHHHMVDLDLTQIQKDILYALITLYKKKSGGSVKGEEIAELINRNPGTVRNQMQALRALGLVEGVPGPKGGYRPTSKAYELLSVTRPEESVVVPVVVNGNVMEELSAEEIVLPSISNPNICQARIRIIGDIKKINPGDSVIVGPTPVNEMMVYGKVVGRDDTENTIVLDIEKIVALPKDTVGEHMSSPIISVDAEESVVNAAKVLAENGIYCTPVQKNGKFVGIFTLDHVAKAVAEGKLNAKVEEVMRPKLVMVEKDTKIGEALRLMRDEKVRILLVTDKGEPVGVITDQKILTRLAPEQVET | not soluble |
| MTKVTHLPADDRSCGWYHLSPPRRPKPAHYGRSAARWVVVGAGFTGLAAARQLALHFPDEEIVLVEAQEVGFGTAGRNAGFAIDLPHDIGADDYIGDIATARIGLKLNLAGQSLLREQVQRHAIDCQMKACGKYQAAVEARGVAVLDAYRRGLDRLGQAYEVIEADDLPGNIGTAFYRKALFTPGTLLVQPSALVKGLADSLPGNVSLYEHTPITAVEYGDRTLLSHPHGSILADRLVLANNAFGMSFGFLQGRMLPIFTYASLTRPLDAEEQARLGGRPYWGLIPANPYGTTVRRTPDNRLLIRNSFSFNPDGRSAGKYLERFAVRHRASFRQRFPMLPEVGFDYTWGGSLALSRNHMGHFGELAPNVYGALCCNGLGVTRGTVTGKLLADWLAGERNELIDFLLRAPGPSGNPPEPLLSLGVNLNLRWGQYRAGRESLEHHHHHH | not soluble |
| SKRVNSCVKSDEHVLEELETEGERQLKSLLQHQLDTSVSIEECMSKKESFAPGTMYKPFGKEAAGTMTLSQFQTLHEKDQETASLRELGLNETEILIWKSHVSGEKKTKLRATPEAIQNRLQDIEERISERQRILCLPQRFAKSKQLTRREMEIEKSLFQGADRHSFLKALYYQDEPQKKNKGDPMNNLESFYQEMIMKKRLEEFQLMRGEPFASHSLVSATSVGDSGTAESPSLLQDKGKQAAQGKGPSLHVANVIDFSPEQCWTGPKKLTQPIEFVPEDEIQRNRLSEEEIRKIPMFSSYNPGEPNKVLYLKNLSPRVTERDLVSLFARFQEKKGPPIQFRMMTGRMRGQAFITFPNKEIAWQALHLVNGYKLYGKILVIEFGKNKKQRSNLQATSLISCATGSTTEISGS | not soluble |
| AEQLRGEPWFHGKLSRREAEALLQLNGDFLVRESTTTPGQYVLTGSQSGQPKHLLLVDPEGVVRTKDHRFESVSHLISYHMDNHLPIISAGSELCLQQPVERKLLEH | soluble |
| MGHHHHHHSHKHPFIVELAYAFQTGGKLYLILECLSGGELFTHLEREGIFLEDTACFYLAEITLALGHLHSQGIIYRDLKPENIMLSSQGHIKLTDFGLCKESIHEGAVTHTFCGTIEYMAPEILVRSGHNRAVDWWSLGALMYDMLTGSPPFTAENRKKTMDKIIRGKLALPPYLTPDARDLVKKFLKRNP | not soluble |
| MAAQLSEIEVKGVKIPLIYEKSTLMPAVNLQIVFTHAGSITDEIPGLASLSARIFNEGTKTLGSVEFAKELENRAISLSVGSGNETLVFDMSALKSEYLEGLRLTRELLRQPNFTKEALSKVKTDIKASLLRKESDFDYVAQVELHRRLFEGTPLEYPSMGNRESIEKITLKEVEEFWKKRGVLRRAIVLVGGDVELEEVKKDLLSLLSVLPLGEEGELVRYEAKGDLEVKSVIKNTQQAYIYFGSPFSVKNLREDSYKAKVAAFVLGSSGFGSRMMEEIRVKRGLAYSAYWRISLSKSVNYSLGYLQTKLENEQQAIGVVRELIEEFLQKGITEKELEGAKQFLLGSEPLRNETLSQRLSSAFSAYYRGLPLDFAKEELHKIEALTLEEINAYIKEHQELLQLSFSVVTAPKE | not soluble |
| MTTILTYPFKNLPTASKWALRFSIRPLSCSSQLRAAPAVQTKTKKTLAKPNIRNVVVVDGVRTPFLLSGTSYKDLMPHDLARAALTGLLHRTSVPKEVVDYIIFGTVIQEVKTSNVAREAALGAGFSDKTPAHTVTMACISANQAMTTGVGLIASGQCDVIVAGGVELMSDVPIRHSRKMRKLMLDLNKAKSMGQRLSLISKFRFNFLAPELPAVSEFSTSETMGHSADRLAAAFAVSRLEQDEYALRSHSLAKKAQDEGLLSDVVPFKVPGKDTVTKDNGIRPSSLEQMAKLKPAFIKPYGTVTAANSSFLTDGASAMLIMAEEKALAMGYKPKAYLRDFMYVSQDPKDQLLLGPTYATPKVLEKAGLTMNDIDAFEFHEAFSGQILANFKAMDSDWFAENYMGRKTKVGLPPLEKFNNWGGSLSLGHPFGATGCRLVMAAANRLRKEGGQYGLVAACAAGGQGHAMIVEAYPK | not soluble |
| MELVYMDGKKEPYTTSEIIAECAEVQHHTITRLIRENKADFEELGILGFKIHKLDTRGQPKKSYILNEQQATFLITYLKNTETVRQFKLNLVKAFFEMREELSEIRLQRALEKPKRKTLHDSIETWPNAPKHAHSTMNNLLLKAVTDMNAKQLREERGGYNGIDSLTSEELEQYQAFEDMAIAMIELKMSYQEIKTMMFRSKKIS | not soluble |
| MALSKFNLFIGDILFNTLTGYAIKLESWEIEKLRKGVVPEHLKDIIEEGFSATDEDLDEEIEKFLRKPVLEPTLVLTYNCNFDCIYCFQKGFRKNISVSDKVTRGFVNYIRKNEKGRKVRVTYFGGEPILQLRKIEEISRELSDLKYSFSVVTNGSLLTRKIVERLIPLGLTHVQITLDGPKEVHDKRRFFVSGEGTFDVIVKNLKEIQDMVKVVLRINIDVKNLNEIGELLNELKMEGINRVRLDPHLVHSNVFRNEWWDFTISSKAEGDVMVKFWEIARKYGFEVPQDVLRLGLCVAYSSEDIVVDPEGNIYPCWAFTGNPLYVKGKLEEDGSVKVTNKSLWWKVKIEDKCRECPFLPLCMGGCKFLATINGDDCKREAYEKIVRSIRWVMG | not soluble |
| MYIGIDLGTSGVKVILLNEQGEVVASQTEKLTVSRPHPLWSEQDPEQWWQATDRAMKALGDQHSLQDVKALGIAGQMHGATLLDAQQRVLRPAILWNDGRCAQECTLLEARVPQSRVITGNLMMPGFTAPKLLWVQRHEPEIFRQIDKVLLPKDYLRLRMTGEFASDMSDAAGTMWLDVAKRDWSDVMLQACDLSRDQMPALYEGSEITGALLPEVAKAWGMATVPVVAGGGDNAAGAVGVGMVDANQAMLSLGTSGVYFAVSEGFLSKPESAVHSFCHALPQRWHLMSVMLSAASCLDWAAKLTGLCNVPALIAAAQQADESAEPVWFLPYLSGERTPHNNPQAKGVFFGLTHQHGPNELARAVLEGVGYALADGMDVVHACGIKPQSVTLIGGGARSEYWRQMLADISGQQLDYRTGGDVGPALGAARLAQIAANPEKSLIELLPQLPLEQSHLPDAQRYAAYQPRRETFRRLYQQLLPLMA | not soluble |
| MGMLVEGVWKDVWYDTKETKGHFKRSASQFRNWVTVDGAVGPSGEGGFEAEKDRYHLYVSFACPWAHRTLIFRKLKKLEDLISVSVVDPLMLENGWEFKPEGERTPGATQDHLFGSSTLWQVYTKADPTYSGRVTVPVLWDKKRGTIVSNESAEIIRMFNVAFNDLTGSDADYYPKALRAEIDALNDVIYDTVNNGVYKAGFATTQDAYQQNAVKVFETLDMLEDRLKDRRFLFGSEQTEADWRLFTTLVRFDPVYVGHFKCNIRRIHDYPHLTGYLRDLYQTPGVPDTVDMRHIKEHYYRSHRTINPTGIVPIGPELDLTMAHGREALS | soluble |
| MKYIINHSNDTAFNIALEEYAFKHLLDEDQIFLLWINKPSIIVGRHQNTIEEINRDYVRENGIEVVRRISGGGAVYHDLNNLNYTIISKEDENKAFDFKSFSTPVINTLAQLGVKAEFTGRNDLEIDGKKFCGNAQAYINGRIMHHGCLLFDVDLSVLANALKVSKDKFESKGVKSVRARVTNIINELPKKITVEKFRDLLLEYMKKEYPEMTEYVFSEEELAEINRIKDTKFGTWDWNYGKSPEFNVRRGIKFTSGKVEVFANVTESKIQDIKIYGDFFGIEDVAAVEDVLRGVKYEREDVLKALKTIDITRYFAGISREEIAEAVVG | not soluble |
| MLYKIYSYLGWRIDMKTENLPQAGQEAQIDKKIHFIWVGHIMPQKNIQVVSEWAEKNPGYETIIWVDKKIAPAKELDLFILDMKSKGITVKDINEEGVCRDSIRHELDQESPNYGMVSDMLRLNILAAEGGIYLDSDILCSAPFPDEIYAPFGFLLSPWSQGANNTLCNDIILCSKGNQIIQQLADAIEQSYIARDSFEFTHEYASMKETKGERIAKTLGVTGPGFLFHQLKKMGILNDKSEMEAIHWELQDQRYLIDGSVKEPDYFYVPQNNTNDASWVPSIKRPGIENMSFQERLENAVQLIAFDIQKTGLFNLDHYANELKVKQNSWCIAAETSPELKPDSYLLIRPRDKTGEWTLYYVDEDKKLNPVTLPVIKGAIKLSEVSDPLRKFHTLLSQVSDPVNPTAHELKQIGRALIELKPRQDEWHCKNKWSGAEEIAQELWQRITSNETLRAQIKQCFTQFESLKPRVAELGLTRASGAGTEVEAHESTVKEQEIISQNTVGEEGTKEKNSVQLASENSSDEKIKTAHDLIDEIIQDVIQLDGKLGLLGGNTRQLEDGRVINIPNGAAMIFDDYKKYKQGELTAESALESMIKIAKLSNQLNRHTFFNQRQPETGQFYKKVAAIDLQTTIAAEYDNNHGLRILEHHHHHH | not soluble |
| MTAESPTIRLERYSERHVEGLTALYNDPAVARQVLQMPYQSVEQRRKRLHDSADDDRLLILVALHQGDVIGSASLEQHPRIRRSHSGSIGMGVAVAWQGKGVGSRLLGELLDIADNWMNLRRVELTVYTDNAPALALYRKFGFETEGEMRDYAVRDGRFVDVYSMARLRRVEGRVGE | soluble |
| EEATSKGQNLNVEKINGEWFSILLASDKREKIEEHGSMRVFVEHIHVLENSLAFKFHTVIDGECSEIFLVADKTEKAGEYSVMYDGFNTFTILKTDYDNYIMFHLINEKDGKTFQLMELYGRKADLNSDIKEKFVKLCEEHGIIKENIIDLTKTNRCLKARE | soluble |
| MGSDKIHHHHHHMIRISNKIKTLLAMLSFVQVTSGCDATVQDIIIDTDPGVEIGNNDYYTWCKETLSVIDKDLKISGTHSYYENQDRSQVSFIWGNIFLLYTYTEGISLSKSEWSDALMNCFLNFDNYWHPNYKGIAGYATLPTSAEKVPDRFYDENGWTAIGLCDAYLATQNNSYLEKAKGALAFSLSGEDNVLGGGIYFQETFVSLPVQKNTICSAVTMLSCMKLYEITQDRQYLDAAIRINDWTVENLLDKSDNLLWDAKMVADGSVNTQKWSYNAGFMIRSWLKMYQATKDEKYLSQAKATLASSEAKWYNSINGALNDPGYFAFSIIDSWFDMYDTDKNTVWLTKAFHAINFIHNKLRDGNGRYPEHWGTPTTSNLEKYDLRFSTVAAYMYMRAANYKRILND | not soluble |
| MSNWGDYQLGGLAPPTEPWLAIRPFLQLPHDFKIVFLSIERGLTRKNDFKTVRQLQKWAYCKPRFCGRGQSPELVIPPVGHPPSSSGLIVKIKQMIRSCVRLASQSTNKLLIFSSLSRNSQLYISMSSSDLGRGFKQGRGTGDSGQSSLYNNERRWKDDDTFNALGATDELSSFLGVCGASAQNDGSMSDVVETLTRLQCCLQDVGAHLATPPKNSSERKQKKTAFDIAMVEWINAEIDRYGDALPAIRQFILSGGGMTSAQLQYSRAICRRAERSIVPLMRDEDVDPMALKFLNRMSDLLFVLGRTACMRNKNEELTYLRPDSFTNLKWDRKSLHEKK | not soluble |
| GPGSMQTSQSLHTAPAEKEVEAPPQLPLTDGRCYACRRCRRILSEVQWYATGCVECSATMGVPDRDSLLDFATPHFHNFIGLIAPGQSWVARLIMKSREPTNGIFAETLSDDEPEDEENEIEPYVGDADEEEGPALLDGEDGAAEPVHELAAEAPE | soluble |
